According to article PMC4377555, “A novel PKD2L1 C-terminal domain critical for trimerization and channel function” (Scientific Reports, 2015):
Where “and” joins values, the source holds several entries; their conditions need not be identical. Equal entries are not always repeated.

B1: Flag-tagged PKD2L1 ΔNT/T622X (M1-Y96 and T622-S805 double deletion) (domain or fragment, human, UniProt Q9P0L9-1 97-621, looked up)
chain: IKTTLRELLVYIVFLVDICLLTYGMTSSSAYYYTKVMSELFLHTPSDTGVSFQAISSMADFWDFAQGPLLDSLYWTKWYNNQSLGHGSHSFIYYENMLLGVPRLRQLKVRNDSCVVHEDFREDILSCYDVYSPDKEEQLPFGPFNGTAWTYHSQDELGGFSHWGRLTSYSGGGYYLDLPGSRQGSAEALRALQEGLWLDRGTRVVFIDFSVYNANINLFCVLRLVVEFPATGGAIPSWQIRTVKLIRYVSNWDFFIVGCEVIFCVFIFYYVVEEILELHIHRLRYLSSIWNILDLVVILLSIVAVGFHIFRTLEVNRLMGKLLQQPNTYADFEFLAFWQTQYNNMNAVNLFFAWIKIFKYISFNKTMTQLSSTLARCAKDILGFAVMFFIVFFAYAQLGYLLFGTQVENFSTFIKCIFTQFRIILGDFDYNAIDNANRILGPAYFVTYVFFVFFVLLNMFLAIINDTYSEVKEELAGQKDELQLSDLLKQGYNKTLLRLRLRKERVSDVQKVLQGGEQEIQFEDF
notes: PKD2L1, human, M1-Y96 and T622-S805 deleted; source: HeLa cells, transfected, in lysate; not shown: Flag, N-terminal, kept
B2: GFP-C1 (GFP fused to PKD2L1 C1, K575-T622) (domain or fragment, human, UniProt Q9P0L9-1 575-622, looked up)
chain: KDELQLSDLLKQGYNKTLLRLRLRKERVSDVQKVLQGGEQEIQFEDFT
notes: PKD2L1, human, domain C1 K575-T622 (48 amino acids), in pET28a(+) with an upstream GFP gene; source: E. coli BL21 (DE3), purified (Ni-NTA); not shown: GFP, N-terminal, kept
B3: Flag-tagged PKD2L1 ΔNT (deletion of M1-Y96) (domain or fragment, human, UniProt Q9P0L9-1 97-805, looked up)
chain: IKTTLRELLVYIVFLVDICLLTYGMTSSSAYYYTKVMSELFLHTPSDTGVSFQAISSMADFWDFAQGPLLDSLYWTKWYNNQSLGHGSHSFIYYENMLLGVPRLRQLKVRNDSCVVHEDFREDILSCYDVYSPDKEEQLPFGPFNGTAWTYHSQDELGGFSHWGRLTSYSGGGYYLDLPGSRQGSAEALRALQEGLWLDRGTRVVFIDFSVYNANINLFCVLRLVVEFPATGGAIPSWQIRTVKLIRYVSNWDFFIVGCEVIFCVFIFYYVVEEILELHIHRLRYLSSIWNILDLVVILLSIVAVGFHIFRTLEVNRLMGKLLQQPNTYADFEFLAFWQTQYNNMNAVNLFFAWIKIFKYISFNKTMTQLSSTLARCAKDILGFAVMFFIVFFAYAQLGYLLFGTQVENFSTFIKCIFTQFRIILGDFDYNAIDNANRILGPAYFVTYVFFVFFVLLNMFLAIINDTYSEVKEELAGQKDELQLSDLLKQGYNKTLLRLRLRKERVSDVQKVLQGGEQEIQFEDFTNTLRELGHAEHEITELTATFTKFDRDGNRILDEKEQEKMRQDLEEERVALNTEIEKLGRSIVSSPQGKSGPEAARAGGWVSGEEFYMLTRRVLQLETVLEGVVSQIDAVGSKLKMLERKGWLAPSPGVKEQAIWKHPQPAPAVTPDPWGVQGGQESEVPYKREEEALEERRLSRGEIPTLQRS
notes: PKD2L1, human, deletion of the N-terminus M1-Y96; also called Flag-ΔNT; Ctrl (ΔNT); source: HeLa or HEK cells, transfected, in lysate; not shown: Flag, N-terminal, kept
B4: purified PKD2L1 C-terminus (CT, E566-S805) (domain or fragment, human, UniProt Q9P0L9-1 566-805, looked up)
chain: EVKEELAGQKDELQLSDLLKQGYNKTLLRLRLRKERVSDVQKVLQGGEQEIQFEDFTNTLRELGHAEHEITELTATFTKFDRDGNRILDEKEQEKMRQDLEEERVALNTEIEKLGRSIVSSPQGKSGPEAARAGGWVSGEEFYMLTRRVLQLETVLEGVVSQIDAVGSKLKMLERKGWLAPSPGVKEQAIWKHPQPAPAVTPDPWGVQGGQESEVPYKREEEALEERRLSRGEIPTLQRS
notes: PKD2L1, human, C-terminus E566-S805; the methods describe only GFP-C1 in pET28a(+) and Ni-NTA; the DLS buffer holds 250 mM imidazole; source: E. coli, purified
B5: human PKD2L1 over-expressed from pcDNA3.1(+) (natural protein, UniProt Q9P0L9-1 1-805, looked up)
chain: MNAVGSPEGQELQKLGSGAWDNPAYSGPPSPHGTLRVCTISSTGPLQPQPKKPEDEPQETAYRTQVSSCCLHICQGIRGLWGTTLTENTAENRELYIKTTLRELLVYIVFLVDICLLTYGMTSSSAYYYTKVMSELFLHTPSDTGVSFQAISSMADFWDFAQGPLLDSLYWTKWYNNQSLGHGSHSFIYYENMLLGVPRLRQLKVRNDSCVVHEDFREDILSCYDVYSPDKEEQLPFGPFNGTAWTYHSQDELGGFSHWGRLTSYSGGGYYLDLPGSRQGSAEALRALQEGLWLDRGTRVVFIDFSVYNANINLFCVLRLVVEFPATGGAIPSWQIRTVKLIRYVSNWDFFIVGCEVIFCVFIFYYVVEEILELHIHRLRYLSSIWNILDLVVILLSIVAVGFHIFRTLEVNRLMGKLLQQPNTYADFEFLAFWQTQYNNMNAVNLFFAWIKIFKYISFNKTMTQLSSTLARCAKDILGFAVMFFIVFFAYAQLGYLLFGTQVENFSTFIKCIFTQFRIILGDFDYNAIDNANRILGPAYFVTYVFFVFFVLLNMFLAIINDTYSEVKEELAGQKDELQLSDLLKQGYNKTLLRLRLRKERVSDVQKVLQGGEQEIQFEDFTNTLRELGHAEHEITELTATFTKFDRDGNRILDEKEQEKMRQDLEEERVALNTEIEKLGRSIVSSPQGKSGPEAARAGGWVSGEEFYMLTRRVLQLETVLEGVVSQIDAVGSKLKMLERKGWLAPSPGVKEQAIWKHPQPAPAVTPDPWGVQGGQESEVPYKREEEALEERRLSRGEIPTLQRS
notes: PKD2L1, human, full-length cDNA in pcDNA3.1(+), no tag named for this experiment; also called TRPP3; source: HEK293T and HeLa cells, transfected, in lysate
B6: Flag-tagged human PKD2L1 WT (natural protein, UniProt Q9P0L9-1 1-805, looked up)
chain: B5 chain
notes: PKD2L1, human, full-length cDNA in pcDNA3.1(+), Flag inserted 5' of the coding region; also called Flag-PKD2L1; source: HeLa cells, transfected, in lysate; not shown: Flag, N-terminal, kept

Assays:
[1] = target: the molecule itself; test: non-reducing SDS-PAGE with Western blot; lysates of transfected HEK or HeLa cells, SDS loading buffer without reducing reagents, on ice 5 min, 8% gel; some samples also under reducing condition or with 10 mM NEM in the lysis buffer
[2] = target: the molecule itself; test: native gel or EMSA; BN-PAGE of purified GFP fusion proteins, Coomassie blue staining
[3] = target: the molecule itself; test: native gel or EMSA; BN-PAGE with Western blot of HeLa cell lysates (NativePAGE Sample Prep Kit, Coomassie G-250, 3-12% BisTris gels), non-denaturing
[4] = target: the molecule itself; test: dynamic light scattering; Malvern Zetasizer Nano ZS, 25°C; 50 mM NaH2PO4, 300 mM NaCl, 250 mM imidazole, pH 8.0; 0.4 mg/ml; oligomeric state from the apparent hydrodynamic diameter

Row | Protein | stoichiometry N [1] | stoichiometry N [3] | other results
1 | B1 | 3 | – | –
2 | B2 | – | – | stoichiometry N [2]: 3
3 | B3 | – | 3 | –
4 | B4 | – | – | stoichiometry N [4]: 3
5 | B5 | 2 and 3 and 4 | – | –
6 | B6 | – | 3 and 2 | –
